Laboratory results reported in paper PMC4220973, “Structural insights into the human RyR2 N-terminal region involved in cardiac arrhythmias” (Acta Crystallographica Section D: Biological Crystallography, 2014).

Molecular target: the molecule itself
Experiment: SEC; analytical size-exclusion chromatography at 4°C; self-association, monomer to dimer

B1: hRyR2^1-606 I419F mutant (domain or fragment, human, UniProt Q92736 1-606, looked up)
chain: MADGGEGEDEIQFLRTDDEVVLQCTATIHKEQQKLCLAAEGFGNRLCFLESTSNSKNVPPDLSICTFVLEQSLSVRALQEMLANTVEKSEGQVDVEKWKFMMKTAQGGGHRTLLYGHAILLRHSYSGMYLCCLSTSRSSTDKLAFDVGLQEDTTGEACWWTIHPASKQRSEGEKVRVGDDLILVSVSSERYLHLSYGNGSLHVDAAFQQTLWSVAPISSGSEAAQGYLIGGDVLRLLHGHMDECLTVPSGEHGEEQRRTVHYEGGAVSVHARSLWRLETLRVAWSGSHIRWGQPFRLRHVTTGKYLSLMEDKNLLLMDKEKADVKSTAFTFRSSKEKLDVGVRKEVDGMGTSEIKYGDSVCYIQHVDTGLWLTYQSVDVKSVRMGSIQRKAIMHHEGHMDDGISLSRSQHEESRTARVFRSTVFLFNRFIRGLDALSKKAKASTVDLPIESVSLSLQDLIGYFHPPDEHLEHEDKQNRLRALKNRQNLFQEEGMINLVLECIDRLHVYSSAAHFADVAGREAGESWKSILNSLYELLAALIRGNRKNCAQFSGSLDWLISRLERLEASSGILEVLHCVLVESPEALNIIKEGHIKSIISLLDKHGR
notes: human ryanodine receptor 2 (hRyR2), N-terminal region, amino acids 1-606, with the cardiac disease-associated mutation I419F in the central helix; Mixture of dimer and monomer by SEC at 4°C (65:35%); Construct details (host, tags) are in Borko et al. (2013); source: recombinant, purified; substitution mutant prepared with the QuikChange protocol
- percent dimer (dimer:monomer ratio): 65%
- stoichiometry N: 2
